Source: the supplement of paper PMC10567573

B1: SOAT2 (parent)
chain: SLGKQKVFIIRKSLLDELMEVQHF

Variants of: B1
Experiment: protein stability index of a GFP-peptide fusion (GPS, HEK-293T) (PSI 1-6); higher = more stable
Conditions: c terminus: a fixed tail appended
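Also: lentivirally expressed fusions sorted by FACS into six bins by GFP to DsRed ratio, PSI derived from sequencing read proportions per bin multiplied by bin number.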

Protein stability index, by site and new letter:
E20: I 2.03, Y 2.9, Q 1.62, T 2.8, D 1.63, F 3.11, G 2.85, S 2.48, K 2.57, V 1.83, H 1.45, P 1.45, C 2.19, N 3.04, M 2.66, R 2.84, L 3.13
H23: T 2.07, W 3.71, S 1.79, K 1.41, F 1.87, N 2.52, Q 2.31, P 2.65, G 1.86, V 3.33, C 2.69, E 1.9, M 1.69, R 1.66, I 2.72, D 1.67, A 2.24, Y 2.64
V21: N 2, P 2.16, Q 4, K 2.08, D 1.74, W 2.46, S 2.63, F 2.85, T 1.93, L 2, C 3.18, M 1.89, Y 2.38, I 3.07, H 2.23, E 1.99, A 3.1, G 1.77, R 2.92
F24: P 2.27, M 2.2, Y 2.74, I 2.9, L 2.18, K 2.4, D 2.65, T 1.8, E 1.71, W 2.78, Q 2.75, A 1.8, S 2.25, H 1.36, G 1.68, N 1.9, C 2.09, R 2.03
M19: L 2.67, W 2.41, P 2.08, Y 1.36, N 3.23, I 2.25, K 2.89, F 3.18, S 2.25, T 1.74, R 1.94, E 1.69, H 2.93, D 2.24, A 3.02, C 2.15, G 2.23, Q 2.25, V 1.66
L18: R 1.98, N 2.54, S 1.25, Y 2.46, T 1.31, V 2.5, P 1.38, Q 2.21
Q22: Y 2.55, D 1.91, F 2.2, V 1.49, K 2.35, L 2.24, E 2.74, H 1.91, C 2.01, R 3.46, M 2.09, T 3.05, S 1.68, G 3.24, W 2.77, P 1.79, N 2.22, A 2.4
